Experimental findings from article PMC7395460, “Structural mechanism of helicase loading onto replication origin DNA by ORC-Cdc6” (Proceedings of the National Academy of Sciences of the …, 2020) are described below.

Sequences and labels used below:
T1: Mcm4 (S. cerevisiae, UniProt P30665 1-933)
T1 construct: Mcm4 of S. cerevisiae; Stood in the assay as a subunit of the mutant Mcm2-7
T1 sequence: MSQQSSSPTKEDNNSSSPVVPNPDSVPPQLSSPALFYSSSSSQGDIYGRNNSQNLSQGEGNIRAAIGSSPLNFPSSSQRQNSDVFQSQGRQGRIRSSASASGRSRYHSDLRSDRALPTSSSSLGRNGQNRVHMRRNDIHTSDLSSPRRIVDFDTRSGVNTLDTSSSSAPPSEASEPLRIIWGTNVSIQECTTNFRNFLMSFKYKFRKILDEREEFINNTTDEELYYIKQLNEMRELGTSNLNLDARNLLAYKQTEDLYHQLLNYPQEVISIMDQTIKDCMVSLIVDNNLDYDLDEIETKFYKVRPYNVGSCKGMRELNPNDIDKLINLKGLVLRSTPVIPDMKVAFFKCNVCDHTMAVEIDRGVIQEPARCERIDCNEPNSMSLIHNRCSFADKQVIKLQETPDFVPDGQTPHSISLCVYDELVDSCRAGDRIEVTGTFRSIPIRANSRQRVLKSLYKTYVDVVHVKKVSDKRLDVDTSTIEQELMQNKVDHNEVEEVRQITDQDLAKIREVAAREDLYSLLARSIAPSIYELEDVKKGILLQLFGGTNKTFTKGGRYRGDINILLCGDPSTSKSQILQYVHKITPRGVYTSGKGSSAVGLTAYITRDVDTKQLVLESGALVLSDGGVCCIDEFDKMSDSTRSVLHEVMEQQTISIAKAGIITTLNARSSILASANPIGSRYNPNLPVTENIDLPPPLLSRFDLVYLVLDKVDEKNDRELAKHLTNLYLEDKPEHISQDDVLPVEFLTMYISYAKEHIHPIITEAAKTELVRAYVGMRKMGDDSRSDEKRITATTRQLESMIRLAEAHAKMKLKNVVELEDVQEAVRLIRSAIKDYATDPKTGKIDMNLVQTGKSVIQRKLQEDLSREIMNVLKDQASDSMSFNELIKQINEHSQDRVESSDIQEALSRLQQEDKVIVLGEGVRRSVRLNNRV

B1: Mcm7 (natural protein, S. cerevisiae, UniProt P38132 1-845, looked up)
chain: MSAALPSIQLPVDYNNLFNEITDFLVTFKQDTLSSDATRNENEDENLDAENIEQHLLEKGPKYMAMLQKVANRELNSVIIDLDDILQYQNEKFLQGTQADDLVSAIQQNANHFTELFCRAIDNNMPLPTKEIDYKDDVLDVILNQRRLRNERMLSDRTNEIRSENLMDTTMDPPSSMNDALREVVEDETELFPPNLTRRYFLYFKPLSQNCARRYRKKAISSKPLSVRQIKGDFLGQLITVRGIITRVSDVKPAVEVIAYTCDQCGYEVFQEVNSRTFTPLSECTSEECSQNQTKGQLFMSTRASKFSAFQECKIQELSQQVPVGHIPRSLNIHVNGTLVRSLSPGDIVDVTGIFLPAPYTGFKALKAGLLTETYLEAQFVRQHKKKFASFSLTSDVEERVMELITSGDVYNRLAKSIAPEIYGNLDVKKALLLLLVGGVDKRVGDGMKIRGDINVCLMGDPGVAKSQLLKAICKISPRGVYTTGKGSSGVGLTAAVMKDPVTDEMILEGGALVLADNGICCIDEFDKMDESDRTAIHEVMEQQTISISKAGINTTLNARTSILAAANPLYGRYNPRLSPLDNINLPAALLSRFDILFLMLDIPSRDDDEKLAEHVTYVHMHNKQPDLDFTPVEPSKMREYIAYAKTKRPVMSEAVNDYVVQAYIRLRQDSKREMDSKFSFGQATPRTLLGIIRLSQALAKLRLADMVDIDDVEEALRLVRVSKESLYQETNKSKEDESPTTKIFTIIKKMLQETGKNTLSYENIVKTVRLRGFTMLQLSNCIQEYSYLNVWHLINEGNTLKFVDDGTMDTDQEDSLVSTPKLAPQTTASANVSAQDSDIDLQDA
notes: Mcm7 of S. cerevisiae; Stood in the assay as a subunit of the mutant Mcm2-7; in the semi-attached OCCM only its WHD is resolved
B2: Orc1 (natural protein, S. cerevisiae)
chain: MAKTLKDLQGWEIITTDEQGNIIDGGQKRLRRRGAKTEHYLKRSSDGIKLGRGDSVVMHNEAAGTYSVYMIQELRLNTLNNVVELWALTYLRWFEVNPLAHYRQFNPDANILNRPLNYYNKLFSETANKNELYLTAELAELQLFNFIRVANVMDGSKWEVLKGNVDPERDFTVRYICEPTGEKFVDINIEDVKAYIKKVEPREAQEYLKDLTLPSKKKEIKRGPQKKDKATQTAQISDAETRATDITDNEDGNEDESSDYESPSDIDVSEDMDSGEISADELEEEEDEEEDEDEEEKEARHTNSPRKRGRKIKLGKDDIDASVQPPPKKRGRKPKDPSKPRQMLLISSCRANNTPVIRKFTKKNVARAKKKYTPFSKRFKSIAAIPDLTSLPEFYGNSSELMASRFENKLKTTQKHQIVETIFSKVKKQLNSSYVKEEILKSANFQDYLPARENEFASIYLSAYSAIESDSATTIYVAGTPGVGKTLTVREVVKELLSSSAQREIPDFLYVEINGLKMVKPTDCYETLWNKVSGERLTWAASMESLEFYFKRVPKNKKKTIVVLLDELDAMVTKSQDIMYNFFNWTTYENAKLIVIAVANTMDLPERQLGNKITSRIGFTRIMFTGYTHEELKNIIDLRLKGLNDSFFYVDTKTGNAILIDAAGNDTTVKQTLPEDVRKVRLRMSADAIEIASRKVASVSGDARRALKVCKRAAEIAEKHYMAKHGYGYDGKTVIEDENEEQIYDDEDKDLIESNKAKDDNDDDDDNDGVQTVHITHVMKALNETLNSHVITFMTRLSFTAKLFIYALLNLMKKNGSQEQELGDIVDEIKLLIEVNGSNKFVMEIAKTLFQQGSDNISEQLRIISWDFVLNQLLDAGILFKQTMKNDRICCVKLNISVEEAKRAMNEDETLRNL
notes: Orc1, subunit of the S. cerevisiae origin recognition complex; Stood in the assay as a subunit of ORC
B3: Orc2 (natural protein, S. cerevisiae)
chain: MLNGEDFVEHNDILSSPAKSRNVTPKRVDPHGERQLRRIHSSKKNLLERISLVGNERKNTSPDPALKPKTPSKAPRKRGRPRKIQEELTDRIKKDEKDTISSKKKRKLDKDTSGNVNEESKTSNNKQVMEKTGIKEKREREKIQVATTTYEDNVTPQTDDNFVSNSPEPPEPATPSKKSLTTNHDFTSPLKQIIMNNLKEYKDSTSPGKLTLSRNFTPTPVPKNKKLYQTSETKSASSFLDTFEGYFDQRKIVRTNAKSRHTMSMAPDVTREEFSLVSNFFNENFQKRPRQKLFEIQKKMFPQYWFELTQGFSLLFYGVGSKRNFLEEFAIDYLSPKIAYSQLAYENELQQNKPVNSIPCLILNGYNPSCNYRDVFKEITDLLVPAELTRSETKYWGNHVILQIQKMIDFYKNQPLDIKLILVVHNLDGPSIRKNTFQTMLSFLSVIRQIAIVASTDHIYAPLLWDNMKAQNYNFVFHDISNFEPSTVESTFQDVMKMGKSDTSSGAEGAKYVLQSLTVNSKKMYKLLIETQMQNMGNLSANTGPKRGTQRTGVELKLFNHLCAADFIASNEIALRSMLREFIEHKMANITKNNSGMEIIWVPYTYAELEKLLKTVLNTL
notes: Orc2, subunit of the S. cerevisiae origin recognition complex; Stood in the assay as a subunit of ORC

Experiment in all cases: cryo-EM structure; pre-insertion OCCM, 8.1 Å; same loading reaction (purified ORC, Cdc6, Cdt1, mutant Mcm2-7, ARS1 DNA, ATPγS); models docked as rigid bodies
Holding throughout (settings): both partners purified

The target of the experiment “Orc1” is B2.
Another experiment has as its target T1, Mcm4.
For the next experiment, the target named is T2, Mcm3 (S. cerevisiae, UniProt P24279 1-971).
T2 construct: Mcm3 of S. cerevisiae; Stood in the assay as a subunit of the mutant Mcm2-7; in the semi-attached OCCM only its WHD is resolved
T2 sequence (P24279 whole entry): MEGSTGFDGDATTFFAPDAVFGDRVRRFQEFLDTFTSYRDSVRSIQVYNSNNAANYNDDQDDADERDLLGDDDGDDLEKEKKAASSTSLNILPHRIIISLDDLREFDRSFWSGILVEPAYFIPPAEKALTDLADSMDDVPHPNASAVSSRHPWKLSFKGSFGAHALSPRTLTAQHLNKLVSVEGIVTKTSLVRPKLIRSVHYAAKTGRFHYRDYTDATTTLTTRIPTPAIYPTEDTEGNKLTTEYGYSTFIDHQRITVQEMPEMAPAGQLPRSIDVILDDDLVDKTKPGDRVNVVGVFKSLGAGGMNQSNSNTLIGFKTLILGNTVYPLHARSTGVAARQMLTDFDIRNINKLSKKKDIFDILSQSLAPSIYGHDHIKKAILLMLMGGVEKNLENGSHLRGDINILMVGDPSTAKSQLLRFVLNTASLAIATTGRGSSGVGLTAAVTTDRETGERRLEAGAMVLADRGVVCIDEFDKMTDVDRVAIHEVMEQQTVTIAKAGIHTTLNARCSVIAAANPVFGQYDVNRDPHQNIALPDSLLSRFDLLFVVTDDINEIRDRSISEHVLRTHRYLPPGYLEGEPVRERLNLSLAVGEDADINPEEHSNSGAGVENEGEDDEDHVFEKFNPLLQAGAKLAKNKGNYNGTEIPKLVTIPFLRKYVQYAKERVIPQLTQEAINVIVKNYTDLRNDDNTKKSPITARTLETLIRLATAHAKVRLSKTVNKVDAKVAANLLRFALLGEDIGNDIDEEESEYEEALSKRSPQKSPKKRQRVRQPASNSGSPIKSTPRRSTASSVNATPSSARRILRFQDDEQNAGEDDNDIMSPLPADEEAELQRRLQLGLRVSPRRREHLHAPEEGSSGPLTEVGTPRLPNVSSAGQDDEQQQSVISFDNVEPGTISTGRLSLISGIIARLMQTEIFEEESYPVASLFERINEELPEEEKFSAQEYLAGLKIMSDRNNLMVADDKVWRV

In the case of B1, the binding result with Orc1 was “binds”.
As for B2, the binding result with Mcm4 is “binds”.
As for B3, the binding result with Mcm3 is on record as “binds”.
